Values of other authors in article PMC10531186.

Target: uPA (Mus musculus) (UniProt P06869)
Chain of UniProt P06869 (P06869 21-433): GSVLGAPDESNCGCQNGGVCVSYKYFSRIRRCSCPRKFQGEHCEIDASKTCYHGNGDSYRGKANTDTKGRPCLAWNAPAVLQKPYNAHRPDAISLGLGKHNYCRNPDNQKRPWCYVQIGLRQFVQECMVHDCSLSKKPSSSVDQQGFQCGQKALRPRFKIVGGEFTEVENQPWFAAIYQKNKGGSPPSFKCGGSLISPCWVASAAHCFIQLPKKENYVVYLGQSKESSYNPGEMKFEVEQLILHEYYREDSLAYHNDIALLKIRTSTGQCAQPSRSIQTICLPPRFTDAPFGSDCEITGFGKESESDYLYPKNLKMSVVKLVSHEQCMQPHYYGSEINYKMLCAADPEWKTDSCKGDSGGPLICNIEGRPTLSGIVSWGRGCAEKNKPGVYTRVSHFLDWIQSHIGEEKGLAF

Ki: 185 nM
Substance: mupain-1
